Test results as given in the supplement of paper PMC10567573.

B1: ZER1 (parent)
chain: KEMARKVIEHCSNFKEENMDTSR
B2: ZNF75A (parent)
chain: RTHTGEQPYTCSICRRNFSRRSSL

Variants of: B1
Experiment: protein stability index of a GFP-peptide fusion (GPS, HEK-293T) (PSI 1-6); higher = more stable
Settings: c terminus: native
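Also: lentivirally expressed fusions sorted by FACS into six bins by GFP to DsRed ratio, PSI derived from sequencing read proportions per bin multiplied by bin number.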

Point of comparison: KEMARKVIERCSNFKEENMDTSR, protein stability index 3.59. Against it:
- KEMARPVIEHCSNFKEENMDTSR — higher, 4.47
- KEMARYVIEHCSNFKEENMDTSR — lower, 1.7
- KEEARKVIEHCSNFKEENMDTSR — higher, 4.53
- KEMARKVIEHCSNFKEENMDTCR — lower, 2.4
- KEMAEKVIEHCSNFKEENMDTSR — higher, 4.72
- KEMAAKVIEHCSNFKEENMDTSR — higher, 4.4
- KEMARKVIDHCSNFKEENMDTSR — higher, 4.11
- KEMARKVIFHCSNFKEENMDTSR — lower, 2.13
- KEMARKVIEHTSNFKEENMDTSR — higher, 4.62
- KEMARKVIEHCSNFKEENFDTSR — higher, 3.94
- KEMARKVIEHCSNFKEENEDTSR — higher, 4.15
- KEMARKVIEHCSNFKEEIMDTSR — lower, 3.31
- KEMARKVIEHCSNFKEECMDTSR — lower, 3.3
- KEMARKVIEHCSNFKEEMMDTSR — lower, 3.54
- KEMARKVIEHCSNFCEENMDTSR — higher, 3.93
- KEMARKKIEHCSNFKEENMDTSR — higher, 4.88
- KEMARKGIEHCSNFKEENMDTSR — higher, 5.13
- KEMARKNIEHCSNFKEENMDTSR — higher, 5.1
- KEMARKVIEHCSNFKIENMDTSR — lower, 2.45
- KEMARKVIEHCSNFKLENMDTSR — lower, 2.52
- KEMARKVIEHCSNFKEENMDTSD — higher, 5.41
- KEMARKVIEHCSNFKEENMDTSK — higher, 5.27
- KEMARKVIESCSNFKEENMDTSR — lower, 3.57
- KEMARKVIEVCSNFKEENMDTSR — lower, 3.33
- KEMARKVIEYCSNFKEENMDTSR — lower, 1.9
- KIMARKVIEHCSNFKEENMDTSR — lower, 3.27
- KEMARKVIEHCSNFKEQNMDTSR — lower, 3.19
- KEMARKVIEHCSNFKENNMDTSR — lower, 3.55
- KEMARKVIEHCSNFKEMNMDTSR — lower, 3.51
- KEMNRKVIEHCSNFKEENMDTSR — higher, 4.21
- KEMCRKVIEHCSNFKEENMDTSR — lower, 3.02
- KEMARKVIEHCSVFKEENMDTSR — lower, 3.05
- KEMARKVIEHCSSFKEENMDTSR — lower, 3.33
- KEMARKVIEHCSIFKEENMDTSR — lower, 1.93
- KEMARKVIEHCSPFKEENMDTSR — lower, 3.32
- KEMARKVIEHCSNFKEENMWTSR — lower, 2.5
- KEMARKVIEHCSNFKEENMPTSR — lower, 2.46
- KEMARKVIEHCSNFKEENMITSR — lower, 1.52
- KEMARKVIEHCSNFKEENMATSR — lower, 1.63
- KEMARKVPEHCSNFKEENMDTSR — higher, 4.7
- KEMARKVYEHCSNFKEENMDTSR — higher, 3.88
- KEMARKVIEHCSNAKEENMDTSR — higher, 4.56
- KEMARKVIEHCSNMKEENMDTSR — higher, 4.4
- KEMARKVIEHCSNLKEENMDTSR — higher, 4.03
- KEMARKVIEHCSNRKEENMDTSR — higher, 4.55
- GEMARKVIEHCSNFKEENMDTSR — higher, 4.12
- DEMARKVIEHCSNFKEENMDTSR — higher, 4.45

Variants of: B2
Experiment: as above
Settings: c terminus: a fixed tail appended

Point of comparison: RTHTGEQPYTCSICRRNFSRRSSN, protein stability index 2.56. Against it:
- RTHTGEQPYTCSICRRNFSCRSSL — lower, 2.4
- RTHTGEQPYTCSICRRNFSIRSSL — lower, 1.73
- RTHTGEQPYTCSICRRNFSDRSSL — lower, 2.46
- RTHTGEQPYTCSICRRNFSGRSSL — higher, 3.5
- RTHTGEQPYTCSICRRNFSTRSSL — higher, 2.59
- RTHTGEQPYTCSICRRNFSKRSSL — lower, 2.12
- RTHTGEQPYTCSICRRNFSFRSSL — lower, 1.72
- RTHTGEQPYTCSICRRNFSQRSSL — lower, 2.13
- RTHTGEQPYTCSICRRNFSYRSSL — lower, 2.24
- RTHTGEQPYTCSICRRNFSNRSSL — lower, 2.19
- RTHTGEQPYTCSICRRNFSSRSSL — lower, 1.93
- RTHTGEQPYTCSICRRNFSWRSSL — lower, 1.52
- RTHTGEQPYTCSICRRNFSARSSL — higher, 2.67
- RTHTGEQPYTCSICRRNFSVRSSL — lower, 2.46
- RTHTGEQPYTCSICRRNFSMRSSL — lower, 2.15
- RTHTGEQPYTCSICRRNFSHRSSL — lower, 2.53
- RTHTGEQPYTCSICRRNFSLRSSL — the same, 2.56
- RTHTGEQPYTCSICRRNFSERSSL — lower, 1.83
- RTHTGEQPYTCSICRRNFSPRSSL — lower, 2.36
- RTHTGEQPYTCSICRRNFSRRSSD — higher, 2.71
- RTHTGEQPYTCSICRRNFSRRSSM — higher, 2.96
- RTHTGEQPYTCSICRRNFSRRSSG — higher, 3.1
- RTHTGEQPYTCSICRRNFSRRSSQ — higher, 3.05
- RTHTGEQPYTCSICRRNFSRRSSV — lower, 2.29
- RTHTGEQPYTCSICRRNFSRRSSI — higher, 2.79
- RTHTGEQPYTCSICRRNFSRRSSR — higher, 3.63
- RTHTGEQPYTCSICRRNFSRRSSY — higher, 3.03
- RTHTGEQPYTCSICRRNFSRRSSF — higher, 2.65
- RTHTGEQPYTCSICRRNFSRRSSP — higher, 3.82
- RTHTGEQPYTCSICRRNFSRRSSS — higher, 2.99
- RTHTGEQPYTCSICRRNFSRRSSW — lower, 1.96
- RTHTGEQPYTCSICRRNFSRRSSK — higher, 4.06
- RTHTGEQPYTCSICRRNFSRRSSH — higher, 3.23
- RTHTGEQPYTCSICRRNFSRRSSA — higher, 3.02
- RTHTGEQPYTCSICRRNFSRRSSC — higher, 2.63
- RTHTGEQPYTCSICRRNFSRRSST — higher, 3.03
- RTHTGEQPYTCSICRRNFSRRSSE — higher, 4.02
- RTHTGEQPYTCSICRRNFSRRRSL — higher, 3.55
- RTHTGEQPYTCSICRRNFSRRLSL — higher, 2.91
- RTHTGEQPYTCSICRRNFSRRWSL — lower, 2.42
- RTHTGEQPYTCSICRRNFSRRFSL — higher, 2.81
- RTHTGEQPYTCSICRRNFSRRGSL — lower, 2.51
- RTHTGEQPYTCSICRRNFSRRNSL — higher, 2.65
- RTHTGEQPYTCSICRRNFSRRASL — higher, 2.86
- RTHTGEQPYTCSICRRNFSRRMSL — lower, 2.25
- RTHTGEQPYTCSICRRNFSRRVSL — higher, 2.93
- RTHTGEQPYTCSICRRNFSRRKSL — higher, 3.16
- RTHTGEQPYTCSICRRNFSRRYSL — higher, 2.99
- RTHTGEQPYTCSICRRNFSRRTSL — higher, 3.27
- RTHTGEQPYTCSICRRNFSRRDSL — lower, 2.3
- RTHTGEQPYTCSICRRNFSRRPSL — higher, 2.76
- RTHTGEQPYTCSICRRNFSRRCSL — higher, 2.64
- RTHTGEQPYTCSICRRNFSRRISL — higher, 2.77
- RTHTGEQPYTCSICRRNFSRRHSL — higher, 3.5
- RTHTGEQPYTCSICRRNFSRRQSL — higher, 2.77
- RTHTGEQPYTCSICRRNFSRRESL — higher, 2.77
- RTHTGEQPYTCSICRRNWSRRSSL — lower, 2.31
- RTHTGEQPYTCSICRRNDSRRSSL — higher, 2.76
- RTHTGEQPYTCSICRRNASRRSSL — higher, 3.47
- RTHTGEQPYTCSICRRNTSRRSSL — lower, 2.28
- RTHTGEQPYTCSICRRNCSRRSSL — higher, 2.57
- RTHTGEQPYTCSICRRNYSRRSSL — higher, 2.61
- RTHTGEQPYTCSICRRNVSRRSSL — higher, 2.8
- RTHTGEQPYTCSICRRNRSRRSSL — higher, 3.99
- RTHTGEQPYTCSICRRNLSRRSSL — lower, 2.21
- RTHTGEQPYTCSICRRNSSRRSSL — higher, 2.69
- RTHTGEQPYTCSICRRNGSRRSSL — lower, 2.38
- RTHTGEQPYTCSICRRNESRRSSL — lower, 1.74
- RTHTGEQPYTCSICRRNKSRRSSL — higher, 2.6
- RTHTGEQPYTCSICRRNMSRRSSL — lower, 2.49
- RTHTGEQPYTCSICRRNHSRRSSL — higher, 2.83
- RTHTGEQPYTCSICRRNNSRRSSL — lower, 2.29
- RTHTGEQPYTCSICRRNISRRSSL — lower, 2.28
- RTHTGEQPYTCSICRRNQSRRSSL — lower, 2.41
- RTHTGEQPYTCSICRRNPSRRSSL — lower, 2.14
- RTHTGEQPYTCSICRRSFSRRSSL — higher, 2.74
- RTHTGEQPYTCSICRRYFSRRSSL — higher, 2.63
- RTHTGEQPYTCSICRRVFSRRSSL — higher, 2.62
- RTHTGEQPYTCSICRRWFSRRSSL — lower, 2.46
- RTHTGEQPYTCSICRRMFSRRSSL — lower, 2.3
- RTHTGEQPYTCSICRRQFSRRSSL — higher, 3.17
- RTHTGEQPYTCSICRRRFSRRSSL — higher, 2.99
- RTHTGEQPYTCSICRRTFSRRSSL — higher, 3.5
- RTHTGEQPYTCSICRRNFSRRSYL — lower, 1.78
- RTHTGEQPYTCSICRRNFSRRSML — lower, 2.33
- RTHTGEQPYTCSICRRNFSRRSRL — higher, 2.9
- RTHTGEQPYTCSICRRNFSRRSQL — lower, 2.04
- RTHTGEQPYTCSICRRNFSRRSLL — lower, 2.15
- RTHTGEQPYTCSICRRNFSRRSIL — lower, 2.13
- RTHTGEQPYTCSICRRNFSRRSVL — lower, 2.5
- RTHTGEQPYTCSICRRNFSRRSAL — higher, 2.67
- RTHTGEQPYTCSICRRNFSRRSNL — higher, 2.63
- RTHTGEQPYTCSICRRNFSRRSEL — lower, 2.17
- RTHTGEQPYTCSICRRNFSRRSCL — higher, 2.85
- RTHTGEQPYTCSICRRNFSRRSWL — lower, 2.34
- RTHTGEQPYTCSICRRNFSRRSTL — higher, 2.72
- RTHTGEQPYTCSICRRNFSRRSKL — higher, 3.2
- RTHTGEQPYTCSICRRNFSRRSHL — lower, 2.32
- RTHTGEQPYTCSICRRNFSRRSDL — lower, 2.28
- RTHTGEQPYTCSICRRNFSRRSGL — higher, 2.76
- RTHTGEQPYTCSICRRNFSRRSPL — higher, 2.94
- RTHTGEQPYTCSICRRNFSRRSFL — lower, 1.78
- RTHTGEQPYTCSICRRNFFRRSSL — higher, 2.59
- RTHTGEQPYTCSICRRNFTRRSSL — higher, 3.25
- RTHTGEQPYTCSICRRNFHRRSSL — higher, 2.62
- RTHTGEQPYTCSICRRNFDRRSSL — higher, 2.67
- RTHTGEQPYTCSICRRNFPRRSSL — lower, 2.23
- RTHTGEQPYTCSICRRNFLRRSSL — lower, 2.51
- RTHTGEQPYTCSICRRNFKRRSSL — higher, 2.91
- RTHTGEQPYTCSICRRNFYRRSSL — higher, 4.33
- RTHTGEQPYTCSICRRNFIRRSSL — higher, 3.39
- RTHTGEQPYTCSICRRNFNRRSSL — higher, 3.59
- RTHTGEQPYTCSICRRNFERRSSL — higher, 3.05
- RTHTGEQPYTCSICRRNFWRRSSL — lower, 2.21
- RTHTGEQPYTCSICRRNFVRRSSL — lower, 2.4
- RTHTGEQPYTCSICRRNFRRRSSL — higher, 2.99
- RTHTGEQPYTCSICRRNFCRRSSL — lower, 2.52
- RTHTGEQPYTCSICRRNFARRSSL — lower, 2.04
- RTHTGEQPYTCSICRRNFGRRSSL — higher, 2.68
- RTHTGEQPYTCSICRRNFMRRSSL — higher, 2.68
- RTHTGEQPYTCSICRRNFQRRSSL — higher, 2.72
- RTHTGEQPYTCSICRRNFSRQSSL — higher, 3.09
- RTHTGEQPYTCSICRRNFSRPSSL — lower, 1.97
- RTHTGEQPYTCSICRRNFSRMSSL — lower, 2.37
- RTHTGEQPYTCSICRRNFSRWSSL — higher, 2.69
- RTHTGEQPYTCSICRRNFSRCSSL — lower, 2.24
- RTHTGEQPYTCSICRRNFSRASSL — lower, 1.64
- RTHTGEQPYTCSICRRNFSRISSL — lower, 1.61
- RTHTGEQPYTCSICRRNFSRFSSL — lower, 1.95
- RTHTGEQPYTCSICRRNFSRLSSL — lower, 1.79
- RTHTGEQPYTCSICRRNFSRYSSL — lower, 1.39
- RTHTGEQPYTCSICRRNFSRSSSL — lower, 1.58
- RTHTGEQPYTCSICRRNFSRDSSL — higher, 2.73
- RTHTGEQPYTCSICRRNFSRGSSL — lower, 1.72
- RTHTGEQPYTCSICRRNFSRKSSL — lower, 2.5
- RTHTGEQPYTCSICRRNFSRVSSL — lower, 1.95
- RTHTGEQPYTCSICRRNFSRESSL — higher, 3.51
- RTHTGEQPYTCSICRRNFSRNSSL — higher, 2.72
- RTHTGEQPYTCSICRRNFSRTSSL — higher, 2.84
- RTHTGEQPYTCSICRRNFSRHSSL — lower, 2.12
